Reference: patent US5686574

Test system: TR/CAR chimera (TR beta A/B and C domains fused to CAR D, E, F domains)
Assay: cell_activity
Details: no ligand, charcoal-stripped serum; JEG3 cells

Sequence “AAAGGTAAGATCAGGGACGTGACCGCAG (double strand) [T3RE]” has an activity (% of TR beta response) greater than 50.
